Experimental data as given in paper PMC7610691 (Nature structural & molecular biology, 2020).

T1: Smc4 (S. cerevisiae condensin subunit) (S. cerevisiae, UniProt Q12267 1-1418)
T1 sequence: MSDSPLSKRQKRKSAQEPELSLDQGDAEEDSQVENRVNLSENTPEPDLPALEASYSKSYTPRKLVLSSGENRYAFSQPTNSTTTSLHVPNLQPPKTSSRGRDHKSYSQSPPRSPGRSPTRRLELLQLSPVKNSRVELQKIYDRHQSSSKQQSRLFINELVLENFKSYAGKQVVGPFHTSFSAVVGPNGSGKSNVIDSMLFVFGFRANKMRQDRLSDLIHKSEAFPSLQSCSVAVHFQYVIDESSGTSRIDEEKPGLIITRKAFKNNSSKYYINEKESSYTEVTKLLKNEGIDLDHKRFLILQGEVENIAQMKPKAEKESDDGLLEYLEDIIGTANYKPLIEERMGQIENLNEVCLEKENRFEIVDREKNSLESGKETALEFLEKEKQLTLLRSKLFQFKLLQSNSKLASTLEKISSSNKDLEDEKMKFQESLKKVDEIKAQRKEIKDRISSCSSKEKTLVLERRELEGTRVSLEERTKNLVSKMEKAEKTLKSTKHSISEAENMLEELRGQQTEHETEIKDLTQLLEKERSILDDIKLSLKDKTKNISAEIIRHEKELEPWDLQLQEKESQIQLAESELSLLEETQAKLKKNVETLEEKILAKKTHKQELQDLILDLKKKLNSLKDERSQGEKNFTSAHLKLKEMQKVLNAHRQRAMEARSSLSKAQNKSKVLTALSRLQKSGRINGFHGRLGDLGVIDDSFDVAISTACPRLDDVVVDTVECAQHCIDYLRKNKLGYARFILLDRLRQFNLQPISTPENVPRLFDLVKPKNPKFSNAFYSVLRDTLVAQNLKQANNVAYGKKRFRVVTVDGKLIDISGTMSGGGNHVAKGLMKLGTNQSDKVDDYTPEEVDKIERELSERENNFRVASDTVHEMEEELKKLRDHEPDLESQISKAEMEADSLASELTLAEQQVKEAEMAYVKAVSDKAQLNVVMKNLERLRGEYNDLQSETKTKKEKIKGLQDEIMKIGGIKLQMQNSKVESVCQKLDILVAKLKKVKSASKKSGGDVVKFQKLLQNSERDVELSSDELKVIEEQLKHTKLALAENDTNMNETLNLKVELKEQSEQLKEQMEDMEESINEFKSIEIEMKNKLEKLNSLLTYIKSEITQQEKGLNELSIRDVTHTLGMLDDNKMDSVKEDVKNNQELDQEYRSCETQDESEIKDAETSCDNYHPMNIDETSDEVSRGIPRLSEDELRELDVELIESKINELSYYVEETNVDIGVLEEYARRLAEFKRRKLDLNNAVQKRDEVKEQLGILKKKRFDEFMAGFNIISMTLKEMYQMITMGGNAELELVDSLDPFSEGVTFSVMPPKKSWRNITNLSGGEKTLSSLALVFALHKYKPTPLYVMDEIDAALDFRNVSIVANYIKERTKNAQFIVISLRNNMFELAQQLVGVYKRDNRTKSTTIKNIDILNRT

B1: Ycs4 (S. cerevisiae condensin HEAT-repeat subunit) (natural protein)
chain: MSGFSLSEYLTKFQTTDRESYPRLQDPSRELNVIIDQLAVSPEQIDASPDSLEALIDLCHDFPHLTPKLQTQLSYLISSSLSNLSKDIKANLSSNVNFTEIGGLIPQWKRHLEEYGYLIQVLLTFLQDELHKVSSQSTNLNRSAKNSKNDSANVELFKRDCNQMENLLESITKLLEINLSKIFQTTPEKDLFIGLFTRPLFVLLEIEPVTKVSSLKMFIQRILAMCVKNHGQSSSIQSSLMTNLTYFLHLSVFNAELLKLLNDEYNYPQLTEDILKEISTRVFNAKDTTGPKAISNFLIKLSELSPGIMLRQMNLVITLLNNSSITLRCSVVEACGNIVAELAQDPQTMEHYKQQIAVLIELLEERFQDSNPYVRTKAIQGCSKICDLSSKFNKSKAKFTSLAVRSLQDRSSLVRRNSVKLLSKLLLKHPFKAIHGSQLRLSEWEEYLKGSESQLNSTLKKVESQETLNDTIERSLIEEEVEQDEGQCRTELEGSFNKSAELSRIENEVENINATNTSVLMKLKLMIVYYKDAISFIKEIHKSIELISNLLFSKNRNEVLESMDFLVLADAFDIELSEFGIKKMLHLVWMKGTNDEGTSISVHLIECYKQLFLTAPDSCNMQEKAAHIAKNLINLSIGASIADLASLEQLLGMMYEQKLIDQHVINILWAIYNSASKASMQKEQNVNNRDSEKGFSKEQIHGSIIILGMLSLADNEIALKGLESLLNIGLGAVGLKDLTLCRYSCLALERMVPKRSTIITKAINQELEDVAVKKLYAIIINYTKDNEYYPMCEQALSALFTISSKPDILATDLIREKTMMTFGKPEEEDSILSLEQSSRVVSLSQLLFIVGQVAIKTLVYLEKCEAEFKKRKIEAETRNGKVKNQGADVTNTTQDNGGDKELEMIGGTNEDDFTDAIQFVKENELLFGEKSILGKFCPIVEEIVSNSSRFSDPMLQRTATLCLEKLMCLSSKYCEKSLPLLITVMEKSPDPTIRSNAVLGLGDMAVCFNNLVDENTDYLYRRLHDENLMVQRTCLMTVTFLILAGQVKVKGQLGEMAKCLDNPDQGISDMCRLFFTELASKDNAIYNGFIDIFSNLSSDDLLGKESFKKIIKFLLTFIDKERHQKQLNEKLVGRLRKCETQKQWDDIAFVLNNLPYKNEDVTALLEQGFKVVSAKE

Tests used:
[1] = molecular target: B1; assay: cross-linking
[2] = molecular target: T1, Smc4 (S. cerevisiae condensin subunit); assay: cryo-EM structure

| binding result [1] | binding result [2] | Binder |
| --- | --- | --- |
| binds | binds | Smc2 (S. cerevisiae condensin subunit) (natural protein) MKVEELIIDGFKSYATRTVITDWDPQFNAITGLNGSGKSNILDAICFVLGIASMSTVRASSLQDLIYKRGQAGVTKASVTIVFDNTDKSNSPIGFTNSPQISVTRQVVLGGTSKYLINGHRAPQQSVLQLFQSVQLNINNPNFLIMQGKITKVLNMKPSEILSLIEEAAGTKMFEDRREKAERTMSKKETKLQENRTLLTEEIEPKLEKLRNEKRMFLEFQSTQTDLEKTERIVVSYEYYNIKHKHTSIRETLENGETRMKMLNEFVKKTSEEIDSLNEDVEEIKLQKEKELHKEGTISKLENKENGLLNEISRLKTSLSIKVENLNDTTEKSKALESEIASSSAKLIEKKSAYANTEKDYKMVQEQLSKQRDLYKRKEELVSTLTTGISSTGAADGGYNAQLAKAKTELNEVSLAIKKSSMKMELLKKELLTIEPKLKEATKDNELNVKHVKQCQETCDKLRARLVEYGFDPSRIKDLKQREDKLKSHYYQTCKNSEYLKRRVTNLEFNYTKPYPNFEASFVHGVVGQLFQIDNDNIRYATALQTCAGGRLFNVVVQDSQTATQLLERGRLRKRVTIIPLDKIYTRPISSQVLDLAKKIAPGKVELAINLIRFDESITKAMEFIFGNSLICEDPETAKKITFHPKIRARSITLQGDVYDPEGTLSGGSRNTSESLLVDIQKYNQIQKQIETIQADLNHVTEELQTQYATSQKTKTIQSDLNLSLHKLDLAKRNLDANPSSQIIARNEEILRDIGECENEIKTKQMSLKKCQEEVSTIEKDMKEYDSDKGSKLNELKKELKLLAKELEEQESESERKYDLFQNLELETEQLSSELDSNKTLLHNHLKSIESLKLENSDLEGKIRGVEDDLVTVQTELNEEKKRLMDIDDELNELETLIKKKQDEKKSSELELQKLVHDLNKYKSNTNNMEKIIEDLRQKHEFLEDFDLVRNIVKQNEGIDLDTYRERSKQLNEKFQELRKKVNPNIMNMIENVEKKEAALKTMIKTIEKDKMKIQETISKLNEYKRETLVKTWEKVTLDFGNIFADLLPNSFAKLVPCEGKDVTQGLEVKVKLGNIWKESLIELSGGQRSLIALSLIMALLQFRPAPMYILDEVDAALDLSHTQNIGHLIKTRFKGSQFIVVSLKEGMFANANRVFRTRFQDGTSVVSIM |
| – | binds | B1 |
